Results on nine molecules are retold here after patent US20200199241A1 (Chugai, published 2020).

Holding throughout (experiment): SPR (Biacore);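 further: antibody variants captured on sensor chip, Fcγ receptor flowed over at 25 °C, bound receptor normalized to amount of captured antibody, expressed relative to reference antibody set as 100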
For orientation: In SPR one partner is held on a chip, and binding of the other changes the refractive index at the surface.

In one assay the target is T1, human FcγRIIIa(F) (human, UniProt P08637 17-208, limits assumed).
T1 construct: also called FcgRIIIaF; allotype F158
T1 sequence (P08637 other isoform, or with tags, fused parts or gaps limits assumed): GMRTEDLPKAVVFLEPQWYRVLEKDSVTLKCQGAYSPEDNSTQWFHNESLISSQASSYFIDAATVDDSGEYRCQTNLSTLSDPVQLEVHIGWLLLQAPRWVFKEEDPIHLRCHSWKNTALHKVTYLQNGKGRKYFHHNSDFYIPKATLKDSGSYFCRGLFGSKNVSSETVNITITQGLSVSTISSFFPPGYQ

The target in another assay is T2, human FcγRIa (human, UniProt P12314 16-292, limits assumed).
T2 construct: also called FcgRIa; FcγRI (CD64)
T2 sequence (P12314 16-292 limits assumed): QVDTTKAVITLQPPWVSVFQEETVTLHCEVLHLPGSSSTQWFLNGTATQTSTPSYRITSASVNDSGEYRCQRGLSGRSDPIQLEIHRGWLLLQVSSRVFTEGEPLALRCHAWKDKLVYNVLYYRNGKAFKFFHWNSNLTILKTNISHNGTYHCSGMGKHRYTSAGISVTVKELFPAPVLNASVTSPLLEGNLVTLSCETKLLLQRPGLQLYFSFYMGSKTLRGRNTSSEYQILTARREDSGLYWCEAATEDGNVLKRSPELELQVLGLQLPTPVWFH

Another assay concerns the target T3, human FcγRIIb (human, UniProt P31994 43-217, limits assumed).
T3 construct: also called FcgRIIb
T3 sequence: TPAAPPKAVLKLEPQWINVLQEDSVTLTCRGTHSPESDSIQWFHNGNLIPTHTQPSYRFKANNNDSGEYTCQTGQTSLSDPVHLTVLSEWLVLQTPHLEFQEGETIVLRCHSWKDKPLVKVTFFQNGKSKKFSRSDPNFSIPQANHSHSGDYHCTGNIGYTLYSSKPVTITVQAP

Another assay deals with T4, human FcγRIIa(H) (human, UniProt P12318 36-217).
T4 construct: also called FcgRIIaH; FcγRIIa type H
T4 sequence: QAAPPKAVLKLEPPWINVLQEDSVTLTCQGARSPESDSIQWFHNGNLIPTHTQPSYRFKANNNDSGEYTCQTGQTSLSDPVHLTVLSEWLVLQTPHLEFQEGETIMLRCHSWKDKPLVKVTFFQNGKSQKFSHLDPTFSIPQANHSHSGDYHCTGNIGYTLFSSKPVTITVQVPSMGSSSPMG

Another assay has as its target T5, human FcγRIIa(R) (human, UniProt P12318 36-217).
T5 construct: also called FcgRIIaR; FcγRIIa type R
T5 chain: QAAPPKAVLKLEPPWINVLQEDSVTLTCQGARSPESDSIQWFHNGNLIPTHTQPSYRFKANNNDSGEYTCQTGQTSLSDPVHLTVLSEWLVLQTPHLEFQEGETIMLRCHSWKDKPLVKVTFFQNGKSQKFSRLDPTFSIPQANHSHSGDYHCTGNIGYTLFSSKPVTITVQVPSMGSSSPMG

B1: GpH7-B3 variant G236R/GpL16-k0 (antibody, human IgG1)
heavy: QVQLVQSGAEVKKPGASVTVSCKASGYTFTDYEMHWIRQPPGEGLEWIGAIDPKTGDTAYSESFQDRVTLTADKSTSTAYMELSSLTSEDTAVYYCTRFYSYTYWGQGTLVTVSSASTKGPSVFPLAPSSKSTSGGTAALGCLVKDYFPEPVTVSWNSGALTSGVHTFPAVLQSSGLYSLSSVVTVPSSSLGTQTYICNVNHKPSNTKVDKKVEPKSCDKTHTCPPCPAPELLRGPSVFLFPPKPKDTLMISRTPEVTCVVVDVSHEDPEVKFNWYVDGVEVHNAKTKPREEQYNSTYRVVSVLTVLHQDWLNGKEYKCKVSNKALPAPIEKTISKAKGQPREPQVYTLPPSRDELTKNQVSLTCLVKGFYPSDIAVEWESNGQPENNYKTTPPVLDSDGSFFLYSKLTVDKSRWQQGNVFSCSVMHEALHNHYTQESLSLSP
light: DIVMTQSPLSLPVTPGEPASISCQASESLVHSNRNTYLHWYLQKPGQSPQLLIYKVSNRFSGVPDRFSGSGSGTDFTLKISRVEAEDVGVYYCSQNTHVPPTFGQGTKVEIE
notes: copies: 2 + 2
In the case of B1, the relative binding activity was -1 % of GpH7-B3/GpL16-k0 with human FcγRIIIa(F); 6 % of GpH7-B3/GpL16-k0 in the assay with human FcγRIa; 0 % of GpH7-B3/GpL16-k0 in the assay with human FcγRIIb; 3 % of GpH7-B3/GpL16-k0 in the assay with human FcγRIIa(H); 0 % of GpH7-B3/GpL16-k0 with human FcγRIIa(R).

B2: GpH7-B3 variant G237V/GpL16-k0 (antibody, human IgG1)
heavy: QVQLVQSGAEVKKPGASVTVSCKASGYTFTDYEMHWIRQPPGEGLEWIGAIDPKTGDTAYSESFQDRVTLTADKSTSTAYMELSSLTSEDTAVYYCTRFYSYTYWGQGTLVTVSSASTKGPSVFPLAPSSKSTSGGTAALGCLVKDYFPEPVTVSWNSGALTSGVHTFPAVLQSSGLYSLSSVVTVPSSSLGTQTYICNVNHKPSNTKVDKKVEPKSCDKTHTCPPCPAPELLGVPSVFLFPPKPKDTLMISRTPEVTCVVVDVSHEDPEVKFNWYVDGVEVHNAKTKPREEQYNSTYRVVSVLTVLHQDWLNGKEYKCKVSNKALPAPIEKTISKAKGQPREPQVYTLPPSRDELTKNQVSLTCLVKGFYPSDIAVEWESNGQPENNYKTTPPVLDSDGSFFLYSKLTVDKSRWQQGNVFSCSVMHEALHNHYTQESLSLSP
light: DIVMTQSPLSLPVTPGEPASISCQASESLVHSNRNTYLHWYLQKPGQSPQLLIYKVSNRFSGVPDRFSGSGSGTDFTLKISRVEAEDVGVYYCSQNTHVPPTFGQGTKVEIE
notes: copies: 2 + 2
Regarding B2, the relative binding activity in the assay with human FcγRIIIa(F) is 2 % of GpH7-B3/GpL16-k0; in the assay with human FcγRIa, 8 % of GpH7-B3/GpL16-k0; with human FcγRIIb it was 12 % of GpH7-B3/GpL16-k0; with human FcγRIIa(H) it was 10 % of GpH7-B3/GpL16-k0; with human FcγRIIa(R), 55 % of GpH7-B3/GpL16-k0.

B3: GpH7-B3 variant L234F/GpL16-k0 (antibody, human IgG1)
heavy: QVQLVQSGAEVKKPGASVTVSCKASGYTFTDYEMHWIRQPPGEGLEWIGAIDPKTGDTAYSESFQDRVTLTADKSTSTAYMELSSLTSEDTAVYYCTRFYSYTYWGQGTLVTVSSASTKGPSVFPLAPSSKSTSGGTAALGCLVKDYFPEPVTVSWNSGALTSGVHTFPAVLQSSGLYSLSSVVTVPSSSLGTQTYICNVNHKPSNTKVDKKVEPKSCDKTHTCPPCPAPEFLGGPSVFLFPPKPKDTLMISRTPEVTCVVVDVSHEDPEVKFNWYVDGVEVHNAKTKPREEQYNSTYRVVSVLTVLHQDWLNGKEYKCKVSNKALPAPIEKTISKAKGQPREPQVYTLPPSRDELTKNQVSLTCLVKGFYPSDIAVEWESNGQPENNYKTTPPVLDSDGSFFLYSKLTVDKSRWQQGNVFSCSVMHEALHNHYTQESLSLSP
light: DIVMTQSPLSLPVTPGEPASISCQASESLVHSNRNTYLHWYLQKPGQSPQLLIYKVSNRFSGVPDRFSGSGSGTDFTLKISRVEAEDVGVYYCSQNTHVPPTFGQGTKVEIE
notes: copies: 2 + 2
Turning to B3, the relative binding activity with human FcγRIIIa(F) is 49 % of GpH7-B3/GpL16-k0; with human FcγRIa, 96 % of GpH7-B3/GpL16-k0; with human FcγRIIb it was 68 % of GpH7-B3/GpL16-k0; with human FcγRIIa(H) it was 62 % of GpH7-B3/GpL16-k0; in the assay with human FcγRIIa(R) it was 52 % of GpH7-B3/GpL16-k0.

B4: GpH7-B3 variant G237D/GpL16-k0 (antibody, human IgG1)
heavy: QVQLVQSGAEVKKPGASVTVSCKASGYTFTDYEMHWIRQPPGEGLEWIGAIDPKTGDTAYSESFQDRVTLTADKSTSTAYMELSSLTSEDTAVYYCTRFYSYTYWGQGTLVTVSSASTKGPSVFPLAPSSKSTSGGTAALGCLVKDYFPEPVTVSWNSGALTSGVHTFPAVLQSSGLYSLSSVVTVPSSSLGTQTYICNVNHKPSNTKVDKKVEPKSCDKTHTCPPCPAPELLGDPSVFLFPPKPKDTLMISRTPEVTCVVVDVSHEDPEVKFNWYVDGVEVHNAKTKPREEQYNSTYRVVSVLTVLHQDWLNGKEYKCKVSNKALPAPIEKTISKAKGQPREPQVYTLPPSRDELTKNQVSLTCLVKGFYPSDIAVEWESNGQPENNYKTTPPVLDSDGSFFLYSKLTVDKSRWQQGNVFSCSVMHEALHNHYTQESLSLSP
light: DIVMTQSPLSLPVTPGEPASISCQASESLVHSNRNTYLHWYLQKPGQSPQLLIYKVSNRFSGVPDRFSGSGSGTDFTLKISRVEAEDVGVYYCSQNTHVPPTFGQGTKVEIE
notes: copies: 2 + 2
As to B4, the relative binding activity was 0 % of GpH7-B3/GpL16-k0 with human FcγRIIIa(F); 26 % of GpH7-B3/GpL16-k0 with human FcγRIa; 95 % of GpH7-B3/GpL16-k0 in the assay with human FcγRIIb; 0 % of GpH7-B3/GpL16-k0 with human FcγRIIa(H); 74 % of GpH7-B3/GpL16-k0 with human FcγRIIa(R).

B5: GpH7-B3 variant G237M/GpL16-k0 (antibody, human IgG1)
heavy: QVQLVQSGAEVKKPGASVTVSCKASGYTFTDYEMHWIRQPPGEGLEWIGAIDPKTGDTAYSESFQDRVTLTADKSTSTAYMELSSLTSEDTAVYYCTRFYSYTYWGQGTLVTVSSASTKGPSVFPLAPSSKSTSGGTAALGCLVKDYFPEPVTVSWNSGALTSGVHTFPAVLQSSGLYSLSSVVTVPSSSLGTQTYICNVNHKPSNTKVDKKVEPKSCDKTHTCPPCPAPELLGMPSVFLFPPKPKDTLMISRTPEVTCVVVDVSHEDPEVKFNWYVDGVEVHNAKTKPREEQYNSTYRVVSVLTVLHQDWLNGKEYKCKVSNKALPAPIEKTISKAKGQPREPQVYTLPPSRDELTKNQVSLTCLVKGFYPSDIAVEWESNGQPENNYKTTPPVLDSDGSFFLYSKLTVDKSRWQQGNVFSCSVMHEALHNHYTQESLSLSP
light: DIVMTQSPLSLPVTPGEPASISCQASESLVHSNRNTYLHWYLQKPGQSPQLLIYKVSNRFSGVPDRFSGSGSGTDFTLKISRVEAEDVGVYYCSQNTHVPPTFGQGTKVEIE
notes: copies: 2 + 2
With B5, the relative binding activity with human FcγRIIIa(F) is 0 % of GpH7-B3/GpL16-k0; with human FcγRIa, 14 % of GpH7-B3/GpL16-k0; with human FcγRIIb it was 36 % of GpH7-B3/GpL16-k0; with human FcγRIIa(H), 1 % of GpH7-B3/GpL16-k0; with human FcγRIIa(R), 56 % of GpH7-B3/GpL16-k0.

B6: GpH7-B3 variant G237S/GpL16-k0 (antibody, human IgG1)
heavy: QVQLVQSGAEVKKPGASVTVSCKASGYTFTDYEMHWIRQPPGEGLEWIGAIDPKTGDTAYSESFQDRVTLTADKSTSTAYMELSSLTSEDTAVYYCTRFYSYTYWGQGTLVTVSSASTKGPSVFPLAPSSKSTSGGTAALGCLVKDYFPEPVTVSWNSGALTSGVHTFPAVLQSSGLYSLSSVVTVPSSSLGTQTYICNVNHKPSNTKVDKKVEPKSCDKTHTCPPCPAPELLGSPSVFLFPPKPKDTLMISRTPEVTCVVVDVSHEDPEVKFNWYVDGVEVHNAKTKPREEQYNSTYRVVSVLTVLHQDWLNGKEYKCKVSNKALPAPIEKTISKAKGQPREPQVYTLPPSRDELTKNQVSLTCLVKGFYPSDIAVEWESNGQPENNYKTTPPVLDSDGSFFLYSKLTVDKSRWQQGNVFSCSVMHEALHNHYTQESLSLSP
light: DIVMTQSPLSLPVTPGEPASISCQASESLVHSNRNTYLHWYLQKPGQSPQLLIYKVSNRFSGVPDRFSGSGSGTDFTLKISRVEAEDVGVYYCSQNTHVPPTFGQGTKVEIE
notes: copies: 2 + 2
Consider B6, for which the relative binding activity with human FcγRIIIa(F) is 1 % of GpH7-B3/GpL16-k0; with human FcγRIa it was 50 % of GpH7-B3/GpL16-k0; with human FcγRIIb it was 26 % of GpH7-B3/GpL16-k0; with human FcγRIIa(H) it was 3 % of GpH7-B3/GpL16-k0; with human FcγRIIa(R) it was 45 % of GpH7-B3/GpL16-k0.

B7: GpH7-B3 variant G237Q/GpL16-k0 (antibody, human IgG1)
heavy: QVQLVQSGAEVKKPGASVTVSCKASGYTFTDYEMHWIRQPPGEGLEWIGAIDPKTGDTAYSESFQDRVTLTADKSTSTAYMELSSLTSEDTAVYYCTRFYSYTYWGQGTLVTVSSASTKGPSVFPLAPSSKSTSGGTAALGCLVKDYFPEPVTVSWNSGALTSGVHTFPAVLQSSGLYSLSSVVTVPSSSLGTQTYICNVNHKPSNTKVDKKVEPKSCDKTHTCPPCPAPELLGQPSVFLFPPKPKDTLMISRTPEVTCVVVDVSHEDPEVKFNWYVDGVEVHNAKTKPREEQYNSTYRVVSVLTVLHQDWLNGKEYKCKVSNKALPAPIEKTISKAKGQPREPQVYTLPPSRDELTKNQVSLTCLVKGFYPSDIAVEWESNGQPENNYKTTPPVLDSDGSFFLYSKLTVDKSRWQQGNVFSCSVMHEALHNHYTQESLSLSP
light: DIVMTQSPLSLPVTPGEPASISCQASESLVHSNRNTYLHWYLQKPGQSPQLLIYKVSNRFSGVPDRFSGSGSGTDFTLKISRVEAEDVGVYYCSQNTHVPPTFGQGTKVEIE
notes: copies: 2 + 2
Consider B7, for which the relative binding activity is 0 % of GpH7-B3/GpL16-k0 with human FcγRIIIa(F); 14 % of GpH7-B3/GpL16-k0 in the assay with human FcγRIa; 5 % of GpH7-B3/GpL16-k0 in the assay with human FcγRIIb; 0 % of GpH7-B3/GpL16-k0 with human FcγRIIa(H); 15 % of GpH7-B3/GpL16-k0 with human FcγRIIa(R).

B8: GpH7-B3 variant G237N/GpL16-k0 (antibody, human IgG1)
heavy: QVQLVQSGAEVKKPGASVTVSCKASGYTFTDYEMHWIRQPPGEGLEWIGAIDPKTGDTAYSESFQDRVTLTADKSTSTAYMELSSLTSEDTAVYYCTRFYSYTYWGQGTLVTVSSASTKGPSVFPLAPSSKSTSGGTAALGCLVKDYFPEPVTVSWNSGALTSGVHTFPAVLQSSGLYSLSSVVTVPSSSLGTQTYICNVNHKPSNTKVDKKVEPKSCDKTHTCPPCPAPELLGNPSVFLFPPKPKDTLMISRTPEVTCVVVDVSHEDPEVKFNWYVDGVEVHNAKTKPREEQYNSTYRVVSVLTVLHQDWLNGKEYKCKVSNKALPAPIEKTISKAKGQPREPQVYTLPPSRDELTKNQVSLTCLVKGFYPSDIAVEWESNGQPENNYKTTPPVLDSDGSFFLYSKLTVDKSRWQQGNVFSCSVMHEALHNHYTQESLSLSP
light: DIVMTQSPLSLPVTPGEPASISCQASESLVHSNRNTYLHWYLQKPGQSPQLLIYKVSNRFSGVPDRFSGSGSGTDFTLKISRVEAEDVGVYYCSQNTHVPPTFGQGTKVEIE
notes: copies: 2 + 2
Turning to B8, the relative binding activity with human FcγRIIIa(F) is 0 % of GpH7-B3/GpL16-k0; with human FcγRIa, 15 % of GpH7-B3/GpL16-k0; in the assay with human FcγRIIb, 65 % of GpH7-B3/GpL16-k0; with human FcγRIIa(H), 0 % of GpH7-B3/GpL16-k0; in the assay with human FcγRIIa(R) it was 75 % of GpH7-B3/GpL16-k0.

B9: GpH7-B3 variant L234E/GpL16-k0 (antibody, human IgG1)
heavy: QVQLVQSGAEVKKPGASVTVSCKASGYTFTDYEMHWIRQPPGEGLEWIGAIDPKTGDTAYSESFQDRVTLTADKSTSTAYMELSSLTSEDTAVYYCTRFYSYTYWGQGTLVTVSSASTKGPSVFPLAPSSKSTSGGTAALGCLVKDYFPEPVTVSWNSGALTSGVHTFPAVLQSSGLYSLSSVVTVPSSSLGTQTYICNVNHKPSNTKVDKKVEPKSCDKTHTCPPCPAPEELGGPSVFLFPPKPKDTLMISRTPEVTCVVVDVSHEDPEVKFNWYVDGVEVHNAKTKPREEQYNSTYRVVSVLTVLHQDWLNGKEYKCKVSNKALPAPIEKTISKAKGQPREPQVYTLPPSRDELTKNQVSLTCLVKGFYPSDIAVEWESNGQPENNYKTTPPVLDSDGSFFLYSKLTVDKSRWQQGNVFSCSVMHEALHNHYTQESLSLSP
light: DIVMTQSPLSLPVTPGEPASISCQASESLVHSNRNTYLHWYLQKPGQSPQLLIYKVSNRFSGVPDRFSGSGSGTDFTLKISRVEAEDVGVYYCSQNTHVPPTFGQGTKVEIE
notes: copies: 2 + 2
Turning to B9, the relative binding activity with human FcγRIIIa(F) is 63 % of GpH7-B3/GpL16-k0; with human FcγRIa, 82 % of GpH7-B3/GpL16-k0; with human FcγRIIb it was 62 % of GpH7-B3/GpL16-k0; in the assay with human FcγRIIa(H), 21 % of GpH7-B3/GpL16-k0; with human FcγRIIa(R), 48 % of GpH7-B3/GpL16-k0.
